Measured values reported in patent US8143372B2, “Synthetic regulators of ferritin protein nanocage pores and methods of use thereof” (Children's Hospital & Research Center Oakland, priority 2007, dated 2012).
No end group written: not given here.

Target: T1, recombinant, frog ferritin H protein nanocages (wild type) (Aquarana catesbeiana, UniProt P07229)
T1 construct: made in house
T1 sequence (P07229 1-176): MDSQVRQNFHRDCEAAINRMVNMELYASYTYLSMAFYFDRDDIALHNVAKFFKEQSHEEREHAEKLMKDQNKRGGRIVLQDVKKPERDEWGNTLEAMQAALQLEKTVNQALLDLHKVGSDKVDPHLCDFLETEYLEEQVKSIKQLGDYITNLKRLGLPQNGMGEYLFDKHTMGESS
Experiment: Ferritin demineralization: formation of Fe2+-bipyridyl after adding NADH/FMN
Format: biochemical
Details: for Initial rate of Fe^2+ bipyridyl formation, pH = 7.0: 2.5 mM FMN, 2.5 mM NADH, 2.5 mM bipyridyl, absorbance 522 nm
Description: The effect of the test agent on demineralization (e.g., on release of iron from ferritin) is generally carried out by contacting the test agent with ferritin in the presence of a reductant and an iron chelating agent such as bipyridyl or desferrioxamine. A suitable reductant comprises nicotinamide adenine dinucleotide reduced form (NADH) and flavin mononucleotide (FMN). The reductant reduces Fe(III) to Fe(II); and the iron chelating agent forms a complex with the Fe(II). Iron release from ferritin can be measured using any convenient method, including methods known in the art. The following is a non-limiting example of a suitable method. In this example, iron release from ferritin is measured by the formation of Fe(II)-bipyridyl. Iron release can be initiated by the addition of 2.5 mM bipyridyl, 2.5 mM FMN, and 2.5 mM NADH to ferritin in 0.1 M MOPS (pH 7.0) and 0.2 M NaCl. Formation of Fe(II)-bipyridyl is detected by measuring absorbance at 522 nm. See, e.g. Liu et al. (2003) Proc. Natl. Acad. Sci. USA 100:3653; and Takagi et al. (1998) J. Biol. Chem. 273:18685. Desferrioxamine can also be used as an iron chelator. See, e.g., Breuer et al. (2001) Blood 97:792.
The strategy used to identify molecules that would modulate ferritin protein nanocage pore function had two components: (i) searching a combinatorial peptide library for ferritin binding peptides, and (ii) analyzing the effect of reductants on the ferritin mineral inside the protein nanocages. Peptides were selected as the molecules of choice for pore alterations because of the selectivity of urea (1 mM) and guanidine (0.1 mM) in pore unfolding, observed previously. Liu and Theil (2003) Proc. Natl. Acad. Sci. U.S.A. 100:3653. Changes in ferritin protein nanocage pore gating can be analyzed as changes in the rate of ferritin iron demineralization, measured as formation of colored Fe chelates, when reductant (NADH/FMN) is added. Jones et al. (1978) Biochemistry 17:4011.
The peptides were mixed with wild type ferritin; demineralization was initiated by addition of NADH/FMN, and the appearance of Fe^2+-bipyridyl measured (FIG. 2). Three of the peptides (2, 3, and 5) had no effect on rates of formation of Fe^2+-bipyridyl, compared to wild type ferritin H protein nanocages, while Peptide 4 (Group B, eluted with ferritin H protein nanocages, after elution with ferritin H-L134P protein nanocages) decreased the rate 63%. Peptide 4 has 3 His and 1 Asp and could bind to charged residues around the pore. The peptide interaction with ferritin protein nanocage could interfere with unfolding and/or reductant access to the ferric mineral, or might induce conformational changes at the pore or elsewhere.
FIG. 2. Effect of binding peptides on removal of iron from the ferritin mineral. Demineralization of ferritin (recombinant, frog ferritin H protein nanocages; protein: 2.06 μM; Fe: 0.99 mM, MOPS: 100 mM, NaCl: 100 mM, pH 7.0) was initiated with reductant (final concentration: 2.5 mM FMN, 2.5 mM NADH), with bipyridyl (2.5 mM); formation of Fe^2+-bipyridyl was monitored at 522 nm. Initial reaction rates were calculated as described previously (Liu et al. (2003) Proc. Natl. Acad. Sci. USA 100:3653). Ferritin binding peptides, identified in a combinatorial, heptapeptide, phage-display library (1.3×10^9 members, New England Biolabs), were mixed with mineralized ferritin protein nanocages for one hour before initiating demineralization. Peptide 2 (Group A, eluted with H-L134P ferritin protein nanocage) and Peptides 3 and 5 (Group B, eluted with wild type ferritin protein nanocage), had no effect. The data are averages from triplicates in 2-5 independent experiments with two different protein preparations; the error is the standard deviation. […]

[1] = compared to wild type ferritin H protein nanocages without peptide

Substance | Effect on rates of formation of Fe^2+-bipyridyl [1] | Initial rate of Fe^2+ bipyridyl formation, pH = 7.0 (H-wt ferritin + peptide) | also measured
GDWYLGD (SEQ ID NO:5) (GDWYLGDGG; not fully specified (N-terminus)) [Peptide 3, heptapeptide from the phage display library, synthesized as an undecapeptide with HS at the N-terminus and GG at the C-terminus] | no effect |  | 
HHALGGS (SEQ ID NO:6) (HHALGGSGG; not fully specified (N-terminus)) [Peptide 5, heptapeptide from the phage display library, synthesized as an undecapeptide with HS at the N-terminus and GG at the C-terminus] | no effect |  | 
HSHHALDGSGG (SEQ ID NO:2) [Peptide 4] |  | 0.41 ± 0.05 (mMol) × 10^3S^−1 | Decrease of the rate of formation of Fe^2+-bipyridyl [1]: 63%
HSNTYYFPKGG (SEQ ID NO:7) [Peptide 1] |  | 6.80 ± 0.37 (mMol) × 10^3S^−1 | Rate Change with Temperature (Arrhenius equation) E‡ (Table 1, H-wt ferritin + peptide): 19.1 ± 0.621 kcal/mol; E‡ in the Arrhenius plot (wild type ferritin complexed with peptide, FIG. 2B): 20.8 kcal/mol
SHTSPSI (SEQ ID NO:4) (SHTSPSIGG; not fully specified (N-terminus)) [Peptide 2, heptapeptide from the phage display library, synthesized as an undecapeptide with HS at the N-terminus and GG at the C-terminus] | no effect |  | 
